According to the supplement of paper PMC9112550, “Optimization of the antimicrobial peptide Bac7 by deep mutational scanning” (BMC Biology, 2022):

Test system: Escherichia coli TOP10
Test: shrunken log2 fold change of peptide-encoding DNA abundance (4.5 h post-induction vs induction); higher = less antimicrobial activity (less host growth inhibition)
Conditions: time post-induction: 4.5 h; library: site-saturation at positions 5, 18, 19, 20
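Also: peptides expressed intracellularly from a pBAD plasmid library in pooled LB shake-flask culture, induced with 0.3% L-arabinose, DNA abundance read by NGS, three biological replicates, DESeq2 with apeglm shrinkage.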

Sequence	shrunken log2 fold change
RRIRDRPPRLPRPRPRPVIHPRP	0.0491
RRIRDRPPRLPRPRPRPVIWPRP	0.0861
RRIRDRPPRLPRPRPRPVLAPRP	0.805
RRIRDRPPRLPRPRPRPVLQPRP	0.0891
RRIRDRPPRLPRPRPRPVLWPRP	0.37
RRIRDRPPRLPRPRPRPVMGPRP	0.0247
RRIRDRPPRLPRPRPRPVMHPRP	-0.112
RRIRDRPPRLPRPRPRPVNGPRP	-0.0115
RRIRDRPPRLPRPRPRPVNSPRP	0.0226
RRIRDRPPRLPRPRPRPVQRPRP	0.121
RRIRDRPPRLPRPRPRPVRQPRP	0.000541
RRIRDRPPRLPRPRPRPVRTPRP	-0.176
RRIRDRPPRLPRPRPRPVTGPRP	0.148
RRIRDRPPRLPRPRPRPVVKPRP	0.0734
RRIRDRPPRLPRPRPRPVWMPRP	0.0445
RRIRDRPPRLPRPRPRPWCGPRP	-0.00113
RRIRDRPPRLPRPRPRPWDPPRP	0.0959
RRIRDRPPRLPRPRPRPWGEPRP	0.0987
RRIRDRPPRLPRPRPRPWHAPRP	-0.134
RRIRDRPPRLPRPRPRPWIFPRP	0.148
RRIRDRPPRLPRPRPRPWKWPRP	0.0155
RRIRDRPPRLPRPRPRPWRNPRP	-0.0018

Sequence	shrunken log2 fold change
RRIRDRPPRLPRPRPRPWRRPRP	0.0906
RRIRDRPPRLPRPRPRPWSLPRP	0.0709
RRIRDRPPRLPRPRPRPWSTPRP	-0.274
RRIRDRPPRLPRPRPRPWTHPRP	-0.291
RRIRDRPPRLPRPRPRPWVFPRP	0.289
RRIRDRPPRLPRPRPRPWVHPRP	-0.0818
RRIRDRPPRLPRPRPRPWWYPRP	-0.738
RRIRDRPPRLPRPRPRPWYHPRP	-0.0258
RRIRDRPPRLPRPRPRPWYIPRP	-0.0219
RRIRDRPPRLPRPRPRPWYWPRP	0.000762
RRIRDRPPRLPRPRPRPYCYPRP	-0.125
RRIRDRPPRLPRPRPRPYDLPRP	-0.00674
RRIRDRPPRLPRPRPRPYEAPRP	-0.108
RRIRDRPPRLPRPRPRPYEFPRP	0.047
RRIRDRPPRLPRPRPRPYFSPRP	-0.345
RRIRDRPPRLPRPRPRPYGCPRP	0.141
RRIRDRPPRLPRPRPRPYIIPRP	-0.758
RRIRDRPPRLPRPRPRPYINPRP	-0.108
RRIRDRPPRLPRPRPRPYKSPRP	-0.106
RRIRDRPPRLPRPRPRPYLHPRP	-0.119
RRIRDRPPRLPRPRPRPYLKPRP	-0.443
RRIRDRPPRLPRPRPRPYNAPRP	-0.0556

Sequence	shrunken log2 fold change
RRIRDRPPRLPRPRPRPYNGPRP	-0.0516
RRIRDRPPRLPRPRPRPYNQPRP	-0.135
RRIRDRPPRLPRPRPRPYNVPRP	-0.0265
RRIRDRPPRLPRPRPRPYPSPRP	-0.167
RRIRDRPPRLPRPRPRPYQFPRP	-0.0464
RRIRDRPPRLPRPRPRPYQLPRP	-0.0742
RRIRDRPPRLPRPRPRPYSAPRP	-0.0545
RRIRDRPPRLPRPRPRPYSRPRP	-0.00164
RRIRDRPPRLPRPRPRPYTHPRP	-0.267
RRIRDRPPRLPRPRPRPYTLPRP	-0.153
RRIRDRPPRLPRPRPRPYTRPRP	-0.0984
RRIRDRPPRLPRPRPRPYVRPRP	-0.402
RRIRDRPPRLPRPRPRPYYDPRP	-0.621
RRIRERPPRLPRPRPRPAAFPRP	-0.0909
RRIRERPPRLPRPRPRPAAHPRP	-0.128
RRIRERPPRLPRPRPRPAANPRP	0.0774
RRIRERPPRLPRPRPRPACHPRP	-0.0945
RRIRERPPRLPRPRPRPACQPRP	0.146
RRIRERPPRLPRPRPRPACRPRP	0.392
RRIRERPPRLPRPRPRPAFNPRP	0.495
RRIRERPPRLPRPRPRPAGYPRP	0.0991
RRIRERPPRLPRPRPRPAHFPRP	0.0793

Sequence	shrunken log2 fold change
RRIRERPPRLPRPRPRPAHNPRP	-0.0074
RRIRERPPRLPRPRPRPAHWPRP	0.339
RRIRERPPRLPRPRPRPAKGPRP	-0.321
RRIRERPPRLPRPRPRPALIPRP	0.129
RRIRERPPRLPRPRPRPALNPRP	0.0441
RRIRERPPRLPRPRPRPAMCPRP	-0.456
RRIRERPPRLPRPRPRPAMPPRP	-0.0115
RRIRERPPRLPRPRPRPANVPRP	-0.0342
RRIRERPPRLPRPRPRPAPQPRP	0.31
RRIRERPPRLPRPRPRPASLPRP	0.0301
RRIRERPPRLPRPRPRPASQPRP	-0.0177
RRIRERPPRLPRPRPRPATHPRP	-0.264
RRIRERPPRLPRPRPRPCAYPRP	-1.05
RRIRERPPRLPRPRPRPCDQPRP	0.0916
RRIRERPPRLPRPRPRPCEVPRP	0.028
RRIRERPPRLPRPRPRPCFLPRP	-0.647
RRIRERPPRLPRPRPRPCFMPRP	-0.231
RRIRERPPRLPRPRPRPCGRPRP	-0.0316
RRIRERPPRLPRPRPRPCGSPRP	0.0206
RRIRERPPRLPRPRPRPCHNPRP	-0.0168
RRIRERPPRLPRPRPRPCHYPRP	-0.224
RRIRERPPRLPRPRPRPCIFPRP	-0.749

Sequence	shrunken log2 fold change
RRIRERPPRLPRPRPRPCIGPRP	-0.479
RRIRERPPRLPRPRPRPCKCPRP	-0.01
RRIRERPPRLPRPRPRPCKLPRP	-0.187
RRIRERPPRLPRPRPRPCKQPRP	-0.086
RRIRERPPRLPRPRPRPCNQPRP	-0.296
RRIRERPPRLPRPRPRPCNTPRP	-0.118
RRIRERPPRLPRPRPRPCPHPRP	-0.105
RRIRERPPRLPRPRPRPCQMPRP	-0.161
RRIRERPPRLPRPRPRPCQPPRP	0.0208
RRIRERPPRLPRPRPRPCRGPRP	0.0764
RRIRERPPRLPRPRPRPCSFPRP	-0.153
RRIRERPPRLPRPRPRPCSHPRP	-0.0193
RRIRERPPRLPRPRPRPCWNPRP	-0.107
RRIRERPPRLPRPRPRPCYRPRP	-0.357
RRIRERPPRLPRPRPRPCYTPRP	-0.0917
RRIRERPPRLPRPRPRPDAPPRP	0.0716
RRIRERPPRLPRPRPRPDASPRP	0.0331
RRIRERPPRLPRPRPRPDAWPRP	0.0128
RRIRERPPRLPRPRPRPDCYPRP	-0.0856
RRIRERPPRLPRPRPRPDDIPRP	-0.793
RRIRERPPRLPRPRPRPDDNPRP	0.0486
